Measured values: article PMC11797056, “The ATPase activity of yeast chromosome axis protein Hop1 affects the frequency of meiotic crossovers” (Nucleic Acids Research, 2024)

Assays:
Hop1 = molecular target: T1, Hop1 (Saccharomyces cerevisiae, UniProt P20050); experiment: ITC (also ATP-agarose chromatography, UV crosslinking/filter binding, ATPase kinetics with Km […])
T1 construct: full-length His6-tagged WT Hop1
T1 sequence (P20050 1-605): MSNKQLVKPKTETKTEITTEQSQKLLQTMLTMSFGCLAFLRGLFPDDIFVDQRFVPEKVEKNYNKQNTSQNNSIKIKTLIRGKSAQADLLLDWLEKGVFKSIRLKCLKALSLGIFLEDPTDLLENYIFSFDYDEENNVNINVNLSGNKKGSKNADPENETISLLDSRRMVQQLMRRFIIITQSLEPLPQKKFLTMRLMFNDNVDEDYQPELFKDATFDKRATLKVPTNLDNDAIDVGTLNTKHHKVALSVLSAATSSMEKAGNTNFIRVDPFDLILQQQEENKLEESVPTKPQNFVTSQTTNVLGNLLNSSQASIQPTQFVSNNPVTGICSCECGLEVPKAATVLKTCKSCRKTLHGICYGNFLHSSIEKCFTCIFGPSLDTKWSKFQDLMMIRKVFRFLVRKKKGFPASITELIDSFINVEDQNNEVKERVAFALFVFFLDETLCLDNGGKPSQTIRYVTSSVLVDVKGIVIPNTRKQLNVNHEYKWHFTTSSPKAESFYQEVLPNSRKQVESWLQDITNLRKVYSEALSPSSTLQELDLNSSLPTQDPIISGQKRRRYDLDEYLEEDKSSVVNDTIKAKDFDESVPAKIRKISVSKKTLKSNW

Hop1 WT = molecular target: T2, Hop1 WT (Saccharomyces cerevisiae, UniProt P20050 1-605); experiment: MST; 25 nM HJ; EMSA: 25 mM HEPES pH 7.5, 0.5 nM 32P-HJ, 37 C 15 min, 8% PAGE in TBE (25 mM Tris base pH 8.0, 25 mM boric acid, 0.5 mM EDTA) at 4 C; MST: 25 nM 6-FAM HJ, buffer not in material; conditions: protein: recombinant; tags: N-terminal His6 (pET28a); label: 5'-6FAM on HJ02; four-way junction of 4 strands
T2 sequence: T1 sequence (P20050 1-605)

Hop1 HORMA domain = molecular target: T3, Hop1 HORMA domain (S. cerevisiae, UniProt P20050 20-250, Red-tris-NTA label (in the MST only)); experiment: MST; Red-tris-NTA labelled Hop1 HORMA domain fixed at 20 nM, Hop1-CTD titrated 0.00031 to 10 uM; incubated at 37°C for 15 min; Pico-RED, 5% excitation power; Hill model; apparent Kd; conditions: both partners purified
T3 construct: Hop1, S. cerevisiae, N-terminal HORMA domain; Amplified from pET28a-HOP1 and cloned NdeI/XhoI into pET14b; also called N-terminal HORMA domain; N-terminal region of Hop1; source: E. coli Rosetta (DE3), pET-14b, purified (Ni2+-NTA); not shown: His tag (inferred: Ni2+-NTA purification); Red-tris-NTA labelling; anti-His detection
T3 sequence (looked up): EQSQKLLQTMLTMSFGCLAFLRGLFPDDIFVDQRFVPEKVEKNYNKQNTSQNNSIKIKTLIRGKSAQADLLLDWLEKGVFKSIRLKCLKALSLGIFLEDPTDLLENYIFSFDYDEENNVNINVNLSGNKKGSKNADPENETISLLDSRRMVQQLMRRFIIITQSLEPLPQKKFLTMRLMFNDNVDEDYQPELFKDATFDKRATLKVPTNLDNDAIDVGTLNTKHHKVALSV

Work on `Nc1ncnc2c1ncn2C1OC(COP(=O)(O)OP(=O)(O)OP(=O)(O)O)C(O)C1O` (stereo not drawn) [ATP] yielded a Kd (Hop1) of roughly 32.9 µM.

B1: Holliday junction (HJ), 6-FAM (structured_DNA)
DNA 1: GACGCTGCCGAATTCTACCAGTGCCTTGCTAGGACATCTTTGCCCACCTGCCGGTTCACCC
DNA 2: TGGGTGAACCTGCAGGTGGGCAAAGATGTCCTAGCAATGTAATCGTCAAAGCTTTATGCCGTT
DNA 3: CAACGGCATAAAGCTTGACGATTACATTGCTAGGACATGCTGTCTAGAGGATCCGACTATCGA
DNA 4: ATCGATAGTCGGATCCTCTAGACAGCATGTCCTAGCAAGGCACTGGTAGAATTCGGCAGCGT
For B1, the Kd (Hop1 WT) was 0.206 µM.

B2: Hop1-CTD (domain or fragment)
chain: LSAATSSMEKAGNTNFIRVDPFDLILQQQEENKLEESVPTKPQNFVTSQTTNVLGNLLNSSQASIQPTQFVSNNPVTGICSCECGLEVPKAATVLKTCKSCRKTLHGICYGNFLHSSIEKCFTCIFGPSLDTKWSKFQDLMMIRKVFRFLVRKKKGFPASITELIDSFINVEDQNNEVKERVAFALFVFFLDETLCLDNGGKPSQTIRYVTSSVLVDVKGIVIPNTRKQLNVNHEYKWHFTTSSPKAESFYQEVLPNSRKQVESWLQDITNLRKVYSEALSPSSTLQELDLNSSLPTQDPIISGQKRRRYDLDEYLEEDKSSVVNDTIKAKDFDESVPAKIRKISVSKKTLKSNW
Work on B2 yielded a Kd (Hop1 HORMA domain) of 1.9 ± 0.5 µM.
